Patent US20060177894A1 (published 2006)
Residue numbers refer to the chain shown, from its start.

B1: hCG-αK91E (ligand)
chain 1: not shown
chain 2: SKEPLRPRCRPINATLAVEKEGCPVCITVNTTICAGYCPTMTRVLQGVLPALPQVVCNYRDVRFESIRLPGCPRGVNPVVSYAVALSCQCALCRRSTTDCGGPKDHPLTCDDPRFQDSSSSKAPPPSLPSPSRLPGPSDTPILPQ
notes: mature; heterodimer from COS-7 medium; also called αK91E+hCGβ
B2: αS43C + hCGβ-S138C (ligand)
chain 1: not shown
chain 2: B1 chain 2 with S138C
notes: mature; disulfide αCys43-βCys138
B3: αT46C + hCGβ-S138C (ligand)
chain 1: not shown
chain 2: B1 chain 2 with S138C
notes: mature; disulfide αCys46-βCys138
B4: αL48C + hCGβ-S138C (ligand)
chain 1: not shown
chain 2: B1 chain 2 with S138C
notes: mature; disulfide αCys48-βCys138; also called hCGβS138C+αL48C
B5: αM47C + hCGβ-S138C (ligand)
chain 1: not shown
chain 2: B1 chain 2 with S138C
notes: mature; disulfide αCys47-βCys138
B6: αR42C + hCGβ-S138C (ligand)
chain 1: not shown
chain 2: B1 chain 2 with S138C
notes: mature; disulfide αCys42-βCys138
B7: αS92C + hCGβ-S138C (ligand)
chain 1: not shown
chain 2: B1 chain 2 with S138C
notes: mature; disulfide αCys92-βCys138
B8: αV49C + hCGβ-S138C (ligand)
chain 1: not shown
chain 2: B1 chain 2 with S138C
notes: mature; disulfide αCys49-βCys138
B9: hCG-αCTδ116/135,138C + hCG β-subunit analog with cysteine in place of Arg95 (ligand)
chain 1: not shown
chain 2: B1 chain 2 with N77P, P78N, R95C
notes: also called knob at β-subunit residue 95
B10: hCG-αCTδ116/135,138C + hCG β-subunit analog with cysteine in place of Asp99 (ligand)
chain 1: not shown
chain 2: B1 chain 2 with N77P, P78N, D99C
notes: also called knob at β-subunit residue 99

Target: T1, rat lutropin receptor (LHR) (rat, UniProt P16235 27-700)
T1 construct: whole, on cells; also called LH receptor
T1 sequence (P16235 27-700): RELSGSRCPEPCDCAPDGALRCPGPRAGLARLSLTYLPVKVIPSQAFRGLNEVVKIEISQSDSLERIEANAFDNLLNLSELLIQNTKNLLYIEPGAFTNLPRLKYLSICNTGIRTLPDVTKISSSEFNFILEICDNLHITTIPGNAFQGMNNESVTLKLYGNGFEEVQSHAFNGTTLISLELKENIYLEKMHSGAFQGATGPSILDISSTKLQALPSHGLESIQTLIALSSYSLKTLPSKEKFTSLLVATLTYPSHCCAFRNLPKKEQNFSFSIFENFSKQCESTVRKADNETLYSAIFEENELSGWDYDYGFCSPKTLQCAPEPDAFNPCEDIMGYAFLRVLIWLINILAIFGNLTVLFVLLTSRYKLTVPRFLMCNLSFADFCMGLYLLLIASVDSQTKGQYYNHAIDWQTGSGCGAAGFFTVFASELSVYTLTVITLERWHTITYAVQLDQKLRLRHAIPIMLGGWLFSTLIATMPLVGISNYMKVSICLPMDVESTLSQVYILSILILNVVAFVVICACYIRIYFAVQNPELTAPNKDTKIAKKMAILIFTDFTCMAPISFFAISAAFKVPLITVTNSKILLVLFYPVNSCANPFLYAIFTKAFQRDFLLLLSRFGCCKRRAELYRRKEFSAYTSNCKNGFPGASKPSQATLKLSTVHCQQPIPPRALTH
Test: LHR binding assay

Row | Binder | fold lower affinity than hCG
1 | B1 | ~10 fold

Target: T1, rat lutropin receptor (LHR)
Test: cell-based or functional assay

Row | Binder | Signal Transduction potency (cAMP accumulation) | Signal transduction potency (cAMP accumulation), acid-stable analog
2 | B1 | 1.1 % of hCG | 
3 | B2 |  | 43 % of hCG
4 | B3 |  | 52 % of hCG
5 | B4 |  | 99 % of hCG
6 | B5 |  | 2.4 % of hCG
7 | B6 |  | 332 % of hCG
8 | B7 |  | 13 % of hCG
9 | B8 |  | 99 % of hCG

Target: T1, rat lutropin receptor (LHR)
Test: LHR binding and signaling assays

Row | Binder | binding result
10 | B9 | no binding
11 | B10 | no binding

Target: T1, rat lutropin receptor (LHR)
Test: inhibition of 125I-hCG binding to CHO cells with rat LHR; from IC50; native β-subunit analog

Row | Binder | Receptor-Binding potency (percent hCG)
12 | B1 | 4.3 % of hCG

Target: T1, rat lutropin receptor (LHR)
Test: inhibition of 125I-hCG binding to CHO cells with rat LHR; from IC50; acid-stable hCGβ-S138C analog

Row | Binder | Receptor-Binding potency (percent hCG)
13 | B2 | 17 % of hCG
14 | B3 | 50 % of hCG
15 | B4 | 66 % of hCG
16 | B5 | 4.1 % of hCG
17 | B6 | 327 % of hCG
18 | B7 | 28 % of hCG
19 | B8 | 71 % of hCG
